Measured values: US20130217613A1 (MARQUETTE UNIVERSITY, published 2013)

Key:
[1] = target: T1, His-tagged human Dpy-30 protein (full length) (human, UniProt Q9C005 1-99); experiment: Ni-NTA pulldown of co-expressed proteins, GST western blot
T1 construct: range 1-99; also called His-Dpy-30; HDpy-30; not shown: His tag and vector-encoded residues of pET-28a

[2] = target: T2, His-tagged human Dpy-30 domain only (Dpy-30 45-99) (human, UniProt Q9C005 45-99); experiment: as above
T2 construct: range 45-99; also called the Dpy-30 domain; Dpy-30 domain alone; not shown: His tag and vector-encoded residues of pET-28a
T2 sequence (Q9C005 45-99): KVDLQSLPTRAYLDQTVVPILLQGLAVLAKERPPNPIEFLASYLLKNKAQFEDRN

T1 sequence (Q9C005 whole entry): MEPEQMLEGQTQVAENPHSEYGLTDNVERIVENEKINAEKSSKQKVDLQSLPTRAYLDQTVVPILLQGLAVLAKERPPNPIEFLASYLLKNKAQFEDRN

binding result [1]: no binding
binding result [2]: no binding
B1: GST-tagged RSP3 280-316 with V300P mutation (other)
chain: PWLKEQAIGYLARGVVARRVPDKLVEDAAAALAANRS
notes: also called pRSP3V300P product; not shown: N-terminal GST tag (from pGEX-2T) and its junction
